Measurements reported in patent US20210063414A1, “METHODS FOR PREVENTING AND/OR TREATING BONE LOSS CONDITIONS BY MODULATING IRISIN” (Dana-Farber Cancer Institute, Inc., priority 2018, published 2021).

Tests used:
Test in all cases: Crosslinking/co-immunoprecipitation/mass spectrometry (TMT quantitative proteomics) to identify irisin receptors
Format in all cases: binding
[1] = molecular target: T1, MLO-Y4 cell surface proteins (Mus musculus, UniProt E9Q557); settings: co-precipitated protein Dsp (DESP_MOUSE)
T1 construct: endogenous in cells; host or cells: MLO-Y4
How it was run: (§1)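 Relative protein abundance came from 6-plex TMT MS3 quantitation on an Orbitrap Fusion Lumos, after in-gel trypsin digestion of Coomassie-stained SDS-PAGE lanes. Input was a Ni-NTA pulldown (250 mM imidazole elution) of lysates from murine MLO-Y4 cells. These cells were treated on ice with His-tagged irisin or adipsin (10 nM, 20 min) in serum-free medium, then crosslinked with 1.5 mM DTSSP for 30 min.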

[2] = molecular target: T2, MLO-Y4 cell surface proteins (Mus musculus, UniProt O35143); settings: co-precipitated protein Atpif1 (ATIF1_MOUSE)
T2 construct: endogenous in cells; host or cells: MLO-Y4
T2 sequence (O35143 26-106): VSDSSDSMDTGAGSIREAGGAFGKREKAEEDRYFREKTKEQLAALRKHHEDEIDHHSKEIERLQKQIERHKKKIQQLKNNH
How it was run: as §1

[3] = molecular target: T3, MLO-Y4 cell surface proteins (Mus musculus, UniProt P59999); settings: co-precipitated protein Atpc4 (ARPC4_MOUSE)
T3 construct: endogenous in cells; host or cells: MLO-Y4
How it was run: as §1

[4] = molecular target: T4, MLO-Y4 cell surface proteins (Mus musculus, UniProt Q8K273); settings: TMT ratio, Mmgt1 Membrane magnesium transporter 1
T4 construct: endogenous in cells; host or cells: MLO-Y4
T4 sequence (Q8K273 1-131): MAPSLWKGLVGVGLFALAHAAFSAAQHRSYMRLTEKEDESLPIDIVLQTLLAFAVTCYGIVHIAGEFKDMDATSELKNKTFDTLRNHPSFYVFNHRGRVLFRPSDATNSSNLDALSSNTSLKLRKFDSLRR
How it was run: as §1

[5] = molecular target: T5, MLO-Y4 cell surface proteins (Mus musculus, UniProt Q9CYR0); settings: co-precipitated protein Ssbp1 (SSBP_MOUSE)
T5 construct: endogenous in cells; host or cells: MLO-Y4
T5 sequence (Q9CYR0 17-152): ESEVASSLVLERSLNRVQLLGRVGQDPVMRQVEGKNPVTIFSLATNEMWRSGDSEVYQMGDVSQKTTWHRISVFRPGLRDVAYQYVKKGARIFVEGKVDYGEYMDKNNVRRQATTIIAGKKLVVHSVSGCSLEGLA
How it was run: as §1

[6] = molecular target: T6, MLO-Y4 cell surface proteins (Mus musculus, UniProt Q9Z2I9); settings: co-precipitated protein Sucla2 (SUCB1_MOUSE)
T6 construct: endogenous in cells; host or cells: MLO-Y4
T6 sequence (Q9Z2I9 54-463): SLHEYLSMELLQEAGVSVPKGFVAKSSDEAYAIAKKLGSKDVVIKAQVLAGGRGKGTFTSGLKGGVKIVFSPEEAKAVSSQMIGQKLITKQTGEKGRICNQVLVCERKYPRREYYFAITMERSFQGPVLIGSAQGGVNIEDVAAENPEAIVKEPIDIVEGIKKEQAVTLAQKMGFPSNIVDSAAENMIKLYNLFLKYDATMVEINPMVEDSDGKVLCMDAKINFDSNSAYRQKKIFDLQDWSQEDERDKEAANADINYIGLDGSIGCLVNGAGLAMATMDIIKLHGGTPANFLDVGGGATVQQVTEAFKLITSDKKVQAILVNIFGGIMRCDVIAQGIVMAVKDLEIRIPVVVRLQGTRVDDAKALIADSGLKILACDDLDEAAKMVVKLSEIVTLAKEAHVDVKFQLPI
How it was run: as §1

T1 sequence (E9Q557 whole entry): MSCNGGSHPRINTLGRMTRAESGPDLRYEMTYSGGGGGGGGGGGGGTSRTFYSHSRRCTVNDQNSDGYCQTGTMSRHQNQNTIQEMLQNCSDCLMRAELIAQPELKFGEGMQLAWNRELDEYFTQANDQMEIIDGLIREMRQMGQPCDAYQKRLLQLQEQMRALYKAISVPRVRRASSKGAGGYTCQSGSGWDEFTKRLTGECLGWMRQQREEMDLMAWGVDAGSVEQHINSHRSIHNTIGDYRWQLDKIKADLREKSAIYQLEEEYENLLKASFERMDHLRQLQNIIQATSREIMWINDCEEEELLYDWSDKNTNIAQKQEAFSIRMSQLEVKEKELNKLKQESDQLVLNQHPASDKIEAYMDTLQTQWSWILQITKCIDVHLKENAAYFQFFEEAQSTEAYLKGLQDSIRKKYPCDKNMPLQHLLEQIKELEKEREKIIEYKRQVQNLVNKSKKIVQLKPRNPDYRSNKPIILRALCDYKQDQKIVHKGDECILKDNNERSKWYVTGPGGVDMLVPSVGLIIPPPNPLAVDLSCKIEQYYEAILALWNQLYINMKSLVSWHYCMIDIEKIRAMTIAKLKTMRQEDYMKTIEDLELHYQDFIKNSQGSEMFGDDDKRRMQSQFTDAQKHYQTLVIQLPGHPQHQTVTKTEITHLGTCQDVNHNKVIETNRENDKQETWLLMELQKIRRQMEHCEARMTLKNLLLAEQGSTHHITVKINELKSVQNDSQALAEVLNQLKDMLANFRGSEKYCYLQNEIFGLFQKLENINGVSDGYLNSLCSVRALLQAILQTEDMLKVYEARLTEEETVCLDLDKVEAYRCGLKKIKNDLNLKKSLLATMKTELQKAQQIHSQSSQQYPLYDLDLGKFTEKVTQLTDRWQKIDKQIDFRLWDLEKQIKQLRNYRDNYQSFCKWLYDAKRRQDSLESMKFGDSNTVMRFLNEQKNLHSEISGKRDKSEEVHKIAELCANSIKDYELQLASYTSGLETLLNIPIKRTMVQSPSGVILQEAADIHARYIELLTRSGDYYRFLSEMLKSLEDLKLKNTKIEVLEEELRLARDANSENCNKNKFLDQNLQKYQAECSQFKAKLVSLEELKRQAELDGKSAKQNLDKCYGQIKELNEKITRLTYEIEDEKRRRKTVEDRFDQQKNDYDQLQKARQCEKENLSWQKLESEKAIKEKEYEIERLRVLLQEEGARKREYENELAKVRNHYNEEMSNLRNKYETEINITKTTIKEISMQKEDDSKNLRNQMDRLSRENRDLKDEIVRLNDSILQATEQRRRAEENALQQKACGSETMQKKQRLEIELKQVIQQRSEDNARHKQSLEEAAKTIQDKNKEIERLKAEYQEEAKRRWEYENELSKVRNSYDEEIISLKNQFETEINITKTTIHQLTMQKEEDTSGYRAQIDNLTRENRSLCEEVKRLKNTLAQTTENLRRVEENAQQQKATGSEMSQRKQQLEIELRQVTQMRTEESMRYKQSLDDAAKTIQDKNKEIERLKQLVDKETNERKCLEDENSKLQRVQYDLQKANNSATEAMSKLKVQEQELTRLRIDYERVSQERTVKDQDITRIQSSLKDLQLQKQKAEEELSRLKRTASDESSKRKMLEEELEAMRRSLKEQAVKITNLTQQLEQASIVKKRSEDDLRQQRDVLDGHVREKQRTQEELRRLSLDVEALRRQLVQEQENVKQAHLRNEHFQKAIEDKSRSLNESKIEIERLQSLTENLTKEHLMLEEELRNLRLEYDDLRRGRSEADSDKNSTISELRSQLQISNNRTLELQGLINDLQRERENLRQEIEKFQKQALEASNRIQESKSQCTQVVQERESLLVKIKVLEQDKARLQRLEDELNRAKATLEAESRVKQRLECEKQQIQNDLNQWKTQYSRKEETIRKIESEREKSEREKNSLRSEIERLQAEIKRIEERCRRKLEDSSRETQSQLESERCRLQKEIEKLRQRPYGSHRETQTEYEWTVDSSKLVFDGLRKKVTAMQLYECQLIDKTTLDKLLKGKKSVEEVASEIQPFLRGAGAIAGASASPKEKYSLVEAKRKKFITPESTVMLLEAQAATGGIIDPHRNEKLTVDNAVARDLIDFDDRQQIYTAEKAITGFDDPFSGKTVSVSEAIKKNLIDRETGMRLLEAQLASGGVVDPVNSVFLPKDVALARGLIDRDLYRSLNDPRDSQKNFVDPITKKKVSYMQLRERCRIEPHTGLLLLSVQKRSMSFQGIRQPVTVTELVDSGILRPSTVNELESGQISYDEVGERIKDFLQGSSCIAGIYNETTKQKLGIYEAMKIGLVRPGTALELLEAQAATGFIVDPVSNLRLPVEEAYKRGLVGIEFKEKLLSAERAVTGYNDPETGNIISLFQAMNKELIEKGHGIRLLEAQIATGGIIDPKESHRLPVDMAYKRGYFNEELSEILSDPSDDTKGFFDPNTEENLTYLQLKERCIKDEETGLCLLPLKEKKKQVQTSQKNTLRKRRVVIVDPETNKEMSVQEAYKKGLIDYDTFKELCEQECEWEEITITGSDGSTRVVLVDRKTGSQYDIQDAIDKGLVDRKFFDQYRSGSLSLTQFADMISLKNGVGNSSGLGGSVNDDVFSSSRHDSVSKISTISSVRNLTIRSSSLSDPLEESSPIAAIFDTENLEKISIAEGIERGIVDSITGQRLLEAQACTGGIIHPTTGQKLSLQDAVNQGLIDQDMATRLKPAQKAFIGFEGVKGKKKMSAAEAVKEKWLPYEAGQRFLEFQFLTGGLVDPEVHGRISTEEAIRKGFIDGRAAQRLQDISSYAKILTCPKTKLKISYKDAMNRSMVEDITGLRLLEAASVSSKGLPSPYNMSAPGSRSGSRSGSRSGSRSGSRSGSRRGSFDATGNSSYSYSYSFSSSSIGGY

B1: irisin: secreted cleaved form of FNDC5; recombinant human/mouse irisin with C-terminal his tag produced in HEK293 cells (protein)
chain: DSPSAPVNVTVRHLKANSAVVSWDVLEDEVVIGFAISQQKKDVRMLRFIQEVNTTTRSCALWDLEEDTEYIVHVQAISIQGQSPASEPVLFKTPREAEKMASKNKDEVTMKE
modifications: left off: small tags and cut ends
notes: secreted cleaved form of FNDC5; recombinant human/mouse irisin with C-terminal his tag produced in HEK293 cells
[1]
  TMT signal-to-noise ratio: 2.707
  irisin/adipsin TMT signal-to-noise ratio: 0.034
[2]
  TMT signal-to-noise ratio: 229.372
  irisin/adipsin TMT signal-to-noise ratio: 0.505
[3]
  TMT signal-to-noise ratio: 74.075
  irisin/adipsin TMT signal-to-noise ratio: 0.536
[4]
  irsin/adipsin: 2.94
[5]
  TMT signal-to-noise ratio: 244.754
  irisin/adipsin TMT signal-to-noise ratio: 0.566
[6]
  TMT signal-to-noise ratio: 19.8331
  irisin/adipsin TMT signal-to-noise ratio: 0.390
